Measured values as given in PMC5040251, “The Structure of Treponema pallidum Tp0751 (Pallilysin) Reveals a Non-canonical Lipocalin Fold That Mediates Adhesion to Extracellular Matrix Components and Interactions with Host Cells” (PLoS Pathogens, 2016).
Ends that are not written are not given here.

What was measured:
fibronectin [1] = assay: Dose-dependent binding assay to immobilized fibronectin; conditions: plate binding to immobilized human plasma fibronectin; peptides serially diluted 1:2 from 40 to 0.625; absorbance 600 nm, three wells, representative of two independent experiments; non-linear regression, GraphPad Prism; read-out: Apparent Kd (Fn)
Procedure: (§1) Fig 3 Tp0751 lipocalin derived peptides directly bind host proteins. (A) Thirteen overlapping Tp0751 synthetic 24-mer peptides were evaluated for binding to immobilized fibrinogen, fibronectin, collagen type I, and collagen type IV. Average absorbance readings (600 nm) from three wells are presented with bars indicating standard error and the results are representative of two independent experiments. […] Average absorbance readings (600 nm) from three wells are presented with bars indicating standard error and the results are representative of two independent experiments. […] The strand colored in cyan reflects the overlap of p10 and p11. Color coded sequences of peptides p4, p6, p10, p10scr1, and p10scr2 are shown. Arginine residues in the p10 peptides are indicated by underlining.
(§2) Plasminogen-depleted human fibrinogen (Calbiochem) was purchased from VWR International. Laminin isolated from Engelbreth-Holm-Swarm murine sarcoma basement membrane and fibronectin isolated from human plasma were purchased from Sigma-Aldrich Canada Ltd. (Oakville, ON). Human collagen types I and IV (Rockland Immunochemicals, Inc.) were purchased from VWR International.
(§3) To test for binding of synthetic Tp0751 peptides p1-p13, p1scr, p6scr, p10scr1, and p10scr2 to the host proteins fibrinogen, fibronectin, laminin, collagen type I, and collagen type IV, initial binding assays were performed as described previously. For dose-dependent binding assays, recombinant proteins were serially diluted 1:2 from either 10 μM to 0.156 μm (Tp0751_78A used for crystallization and Tp0751_78 WT) or 40 μm to 0.625 μm (peptides p4, p6, p10, p11, p10scr1, and p10scr2). Average absorbance readings (600 nm) from three wells are presented with bars indicating standard error and the results are representative of two independent experiments. Plates were read at 600 nm with a BioTek enzyme-linked immunosorbent assay plate reader (Fisher Scientific, Ottawa, ON). All statistical analyses were performed using the Student’s two-tailed t-test. Non-linear regression curves were fitted and apparent dissociation constants (K d) were calculated using GraphPad Prism data analysis software (San Diego, CA).

collagen type I = assay: Initial (single point) binding screen of Tp0751 peptide library to immobilized collagen type I; conditions: immobilized human collagen type I; absorbance 600 nm, three wells, two independent experiments; Student's two-tailed t-test against non-binding peptides
Procedure: as §1, §2, §3

collagen type IV = assay: Initial (single point) binding screen of Tp0751 peptide library to immobilized collagen type IV; conditions: immobilized human collagen type IV; absorbance 600 nm, three wells, two independent experiments; Student's two-tailed t-test against non-binding peptides
Procedure: as §1, §2, §3

fibronectin [2] = assay: Initial (single point) binding screen of Tp0751 peptide library to immobilized fibronectin; design: species or system human; conditions: absorbance 600 nm, three wells, two independent experiments, Student's two-tailed t-test against non-binding peptides
Procedure: as §1, §2, §3

fibrinogen = target: T1, fibrinogen (Homo sapiens, UniProt P02671+P02675+P02679); assay: Initial (single point) binding screen of Tp0751 peptide library to immobilized fibrinogen; conditions: absorbance 600 nm, three wells, two independent experiments, Student's two-tailed t-test against non-binding peptides
T1 construct: purchased Calbiochem, purchased from VWR International
T1 sequence (P02671 20-629 limits assumed): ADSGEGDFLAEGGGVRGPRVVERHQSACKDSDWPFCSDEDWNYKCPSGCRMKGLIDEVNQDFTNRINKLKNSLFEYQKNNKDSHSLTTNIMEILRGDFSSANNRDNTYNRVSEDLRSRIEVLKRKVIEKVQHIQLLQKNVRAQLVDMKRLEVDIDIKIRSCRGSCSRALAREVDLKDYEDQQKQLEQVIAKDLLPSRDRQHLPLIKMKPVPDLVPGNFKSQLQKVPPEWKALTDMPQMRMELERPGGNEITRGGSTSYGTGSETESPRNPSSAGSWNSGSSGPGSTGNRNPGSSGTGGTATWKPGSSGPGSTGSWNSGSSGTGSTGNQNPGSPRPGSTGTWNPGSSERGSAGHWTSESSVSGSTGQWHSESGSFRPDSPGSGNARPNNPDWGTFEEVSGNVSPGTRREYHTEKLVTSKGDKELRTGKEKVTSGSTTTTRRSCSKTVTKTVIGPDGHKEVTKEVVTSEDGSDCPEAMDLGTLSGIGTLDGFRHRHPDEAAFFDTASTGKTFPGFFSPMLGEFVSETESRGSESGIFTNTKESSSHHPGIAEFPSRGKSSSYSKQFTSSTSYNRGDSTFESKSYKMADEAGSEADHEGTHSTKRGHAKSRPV
T1 sequence (P02675 31-491): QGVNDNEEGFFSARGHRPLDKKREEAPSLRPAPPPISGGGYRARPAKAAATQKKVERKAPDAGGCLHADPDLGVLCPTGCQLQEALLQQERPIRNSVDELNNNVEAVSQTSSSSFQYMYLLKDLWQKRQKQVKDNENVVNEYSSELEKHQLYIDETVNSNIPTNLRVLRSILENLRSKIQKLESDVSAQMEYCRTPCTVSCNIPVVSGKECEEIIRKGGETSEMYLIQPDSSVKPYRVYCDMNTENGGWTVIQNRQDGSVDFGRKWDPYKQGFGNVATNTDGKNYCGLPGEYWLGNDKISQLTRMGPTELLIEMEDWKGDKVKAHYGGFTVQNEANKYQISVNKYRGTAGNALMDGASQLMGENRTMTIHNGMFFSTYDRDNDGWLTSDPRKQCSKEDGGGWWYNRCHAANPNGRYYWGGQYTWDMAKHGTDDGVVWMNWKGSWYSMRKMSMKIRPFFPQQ
T1 sequence (P02679 27-433 limits assumed): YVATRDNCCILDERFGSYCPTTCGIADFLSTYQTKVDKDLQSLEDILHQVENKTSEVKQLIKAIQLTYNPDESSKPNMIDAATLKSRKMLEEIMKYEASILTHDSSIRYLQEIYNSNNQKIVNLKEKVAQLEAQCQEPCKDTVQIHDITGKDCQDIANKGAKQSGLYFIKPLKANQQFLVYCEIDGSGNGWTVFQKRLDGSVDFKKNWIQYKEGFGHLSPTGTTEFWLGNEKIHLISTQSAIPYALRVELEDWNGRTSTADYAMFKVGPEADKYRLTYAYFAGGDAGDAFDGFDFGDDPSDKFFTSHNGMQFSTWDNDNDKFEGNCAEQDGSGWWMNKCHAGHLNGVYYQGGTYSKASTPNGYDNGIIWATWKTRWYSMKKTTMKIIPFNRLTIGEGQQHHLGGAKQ
Procedure: as §1, §2, §3

[3] = target: fibronectin isolated from human plasma (human); assay: ELISA; dose-dependent plate binding assay on immobilised fibrinogen or fibronectin; His6-tagged synthetic peptides serially diluted 1:2 from 40 μM to 0.625 μM; absorbance at 600 nm; apparent Kd by non-linear regression (GraphPad Prism)
[4] = target: T2, plasminogen-depleted human fibrinogen (human, UniProt P02671-2 20-644; P02675 31-491; P02679-2 27-437); assay: as above; conditions: both partners purified
T2 construct: fibrinogen alpha chain, human; fibrinogen beta chain, human; fibrinogen gamma chain, human; also called Fg; source: bought: Calbiochem (through VWR International)
T2 sequence (looked up) 1: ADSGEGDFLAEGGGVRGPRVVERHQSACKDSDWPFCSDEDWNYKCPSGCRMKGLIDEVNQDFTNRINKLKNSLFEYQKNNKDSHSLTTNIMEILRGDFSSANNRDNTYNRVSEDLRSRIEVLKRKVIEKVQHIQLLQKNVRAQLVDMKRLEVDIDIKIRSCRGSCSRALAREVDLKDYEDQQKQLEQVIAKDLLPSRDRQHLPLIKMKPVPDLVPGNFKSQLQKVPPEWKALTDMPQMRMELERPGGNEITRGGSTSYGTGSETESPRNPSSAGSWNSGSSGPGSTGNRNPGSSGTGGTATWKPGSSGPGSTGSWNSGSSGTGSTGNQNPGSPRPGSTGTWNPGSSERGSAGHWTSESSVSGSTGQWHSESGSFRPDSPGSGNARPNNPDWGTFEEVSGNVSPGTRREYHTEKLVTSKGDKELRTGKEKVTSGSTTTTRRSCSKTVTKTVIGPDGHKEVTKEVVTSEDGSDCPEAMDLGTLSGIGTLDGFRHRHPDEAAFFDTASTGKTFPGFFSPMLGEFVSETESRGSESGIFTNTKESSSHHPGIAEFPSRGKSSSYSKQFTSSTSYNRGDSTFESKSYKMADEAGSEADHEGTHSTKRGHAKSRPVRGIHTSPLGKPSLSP
T2 sequence (looked up) 2: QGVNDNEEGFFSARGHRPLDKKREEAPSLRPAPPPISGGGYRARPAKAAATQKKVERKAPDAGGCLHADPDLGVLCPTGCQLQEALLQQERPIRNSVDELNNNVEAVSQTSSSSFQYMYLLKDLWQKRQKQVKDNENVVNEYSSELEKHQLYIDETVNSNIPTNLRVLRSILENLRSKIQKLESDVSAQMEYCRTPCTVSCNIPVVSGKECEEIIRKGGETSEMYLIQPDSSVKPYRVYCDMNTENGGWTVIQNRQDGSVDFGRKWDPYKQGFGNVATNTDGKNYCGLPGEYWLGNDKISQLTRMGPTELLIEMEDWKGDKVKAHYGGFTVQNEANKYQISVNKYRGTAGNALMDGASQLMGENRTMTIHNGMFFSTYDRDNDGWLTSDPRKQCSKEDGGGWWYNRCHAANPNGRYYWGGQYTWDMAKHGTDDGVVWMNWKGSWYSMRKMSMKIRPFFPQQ
T2 sequence (looked up) 3: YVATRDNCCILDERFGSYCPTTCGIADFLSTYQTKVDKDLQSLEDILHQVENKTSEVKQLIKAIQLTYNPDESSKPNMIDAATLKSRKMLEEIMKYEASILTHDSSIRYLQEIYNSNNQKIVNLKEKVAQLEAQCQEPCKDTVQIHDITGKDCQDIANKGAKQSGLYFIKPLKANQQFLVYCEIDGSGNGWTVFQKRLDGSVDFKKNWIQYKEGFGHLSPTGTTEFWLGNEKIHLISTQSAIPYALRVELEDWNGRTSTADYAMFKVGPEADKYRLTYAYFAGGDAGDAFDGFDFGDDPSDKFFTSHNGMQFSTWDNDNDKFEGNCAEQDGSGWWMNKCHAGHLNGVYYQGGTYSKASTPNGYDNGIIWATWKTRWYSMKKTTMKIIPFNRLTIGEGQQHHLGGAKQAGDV

[5] = target: T2, plasminogen-depleted human fibrinogen; assay: ELISA; dose-dependent plate binding assay on immobilised fibrinogen; recombinant Tp0751 proteins serially diluted 1:2 from 10 μM to 0.156 μM; absorbance at 600 nm; apparent Kd by non-linear regression (GraphPad Prism); conditions: both partners purified

Molecule: HHHHHHTSRVKLTISFERSLVNRTRTARFI [p10scr1]
- Kd (fibronectin [1]): 1.3 ± 0.1 µM
- Binding to collagen I in initial binding screen (collagen type I): enhanced binding relative to p10
- Binding to collagen IV in initial binding screen (collagen type IV): enhanced binding relative to p10
- Binding to fibronectin in initial binding screen (fibronectin [2]): enhanced binding relative to p10
- Binding to fibrinogen in initial binding screen (fibrinogen): enhanced binding relative to p10

Molecule: Tp0751 synthetic peptide p4 (from UniProt O83732 88-111)
- Kd [3]: 2.4 µM

Molecule: Tp0751 synthetic peptide p6 (from UniProt O83732 116-139)
- Kd [3]: 4.5 µM

Molecule: Tp0751 synthetic peptide p11 (from UniProt O83732 186-209)
- Kd [3]: 5.8 µM

B1: Tp0751 synthetic peptide p11 (peptide)
peptide: SIRRRLEVTFESHEVIHVRAVEDV
notes: Tp0751 (pallilysin), Treponema pallidum subsp. pallidum; shares its first 10 residues (with the arginine triplet) with p10; source: synthetic peptide; not shown: His6, N-terminal, kept
- Kd [4]: 9.2 ± 1 µM

B2: Tp0751 synthetic peptide p6 (peptide)
peptide: QGALQHLLAGLWIQTEISPNSGDI
notes: Tp0751 (pallilysin), Treponema pallidum subsp. pallidum; its central four residues LWIQ (126-129) are printed; also called peptide 6; source: synthetic peptide; not shown: His6, N-terminal, kept
- Kd [4]: 10.5 ± 2 µM

B3: Tp0751 synthetic peptide p10 (peptide)
peptide: RKTVSFLTRNTAISSIRRRLEVTF
notes: Tp0751 (pallilysin), Treponema pallidum subsp. pallidum; Its composition equals that of the printed scrambled peptide p10scr2; also called peptide 10; source: synthetic peptide; not shown: His6, N-terminal, kept
- Kd [4]: 1.6 ± 0.1 µM

Molecule: VAREFNKSRTILFRTSVTRLSTRI [second scrambled version of Tp0751 peptide 10 (p10scr2)]
- Kd [3]: 7.9 µM

B4: Tp0751_78 WT (domain or fragment)
chain: SHGNAPPAPVGGAAQTHTQPPVQTAMRIALWNRATHGEQGALQHLLAGLWIQTEISPNSGDIHPLLFFDREHAEITFSRASVQEIFLVDSAHTHRKTVSFLTRNTAISSIRRRLEVTFESHEVIHVRAVEDVARLKIGSTSMWDGQYTRYHAGPASAPSP
notes: Tp0751 (pallilysin), Treponema pallidum subsp. pallidum, Ser78 to Pro237 (C-terminus), wild type at Glu199; The methods tell vector (modified pET28a, TEV-cleavable N-terminal His6), host strain and purification only for the E199A constructs; also called wild-type Tp0751_78 WT; source: E. coli, purified
- Kd [5]: 6.1 ± 1.7 µM

B5: Tp0751_78 E199A (Tp0751_78A) (domain or fragment, Treponema pallidum subsp. pallidum, UniProt O83732 78-237, looked up)
chain: SHGNAPPAPVGGAAQTHTQPPVQTAMRIALWNRATHGEQGALQHLLAGLWIQTEISPNSGDIHPLLFFDREHAEITFSRASVQEIFLVDSAHTHRKTVSFLTRNTAISSIRRRLEVTFESHAVIHVRAVEDVARLKIGSTSMWDGQYTRYHAGPASAPSP
notes: Tp0751 (pallilysin), Treponema pallidum subsp. pallidum, Ser78 to Pro237 (C-terminus), with E199A; The construct used for crystallization; also called pallilysin Ser78 to Pro237 E199A; not shown: His6, N-terminal, cleaved
- Kd [5]: 2 ± 0.4 µM

B6: Tp0751 synthetic peptide p4 (peptide)
peptide: GGAAQTHTQPPVQTAMRIALWNRA
notes: Tp0751 (pallilysin), Treponema pallidum subsp. pallidum; its central four residues PVQT (98-101) are printed; also called peptide 4; source: synthetic peptide; not shown: His6, N-terminal, kept
- Kd [4]: 6.9 ± 0.4 µM
